The values below come from a protein production outcome set (Wang et al. 2014).

The data set is described as follows: label from the status in PepcDB records.
With “MLRMKKFLVVFFLVQSIFVFAQQSKKVESALKTFNSGKIDDGIKKMEAATQEDPSEDNWDLLVQMYKYRYEYAEQQQEDALTLLLLQSLGGSKAKIKKYTSPSVCYRDLIEKSKQAELNSRSTTASMVLRAYLVDYYPDTAVADTAKKEFNSAEKYFSEKDYPNAKLHYQNACKLDPSYYKALIYLGDTHWHMKKMDSAIYYFKQGIQMHGDLLEPRKYLVDALRDSKQYDEAIQESINAITVYPDESMFEKVESLYAKTGRTFDRHWIKRGCNVNTYAGTQLVTTNETWKAYQQARGEIKTYCDTNGVIVKSNSLTKAHYMEVYSWEKMLASNLVVPQELAFAKKMADEGYLDCYVFISLYHYDEYDQFIDFAKNNKERIRTYITKYLIQ”, the protein production entry is “failed”.

“MLSARTMKEVVYWSPKKVADWLLENAMPEYCEPLEHFTGQDLINLTQEDFKKPPLYRVSSDNGQRLLDMIETLKMEHHMEAHKN”: the protein production result is given as “not failed”.

Regarding “MLSFCPSCNNMLLITSGDSGVYTLACRSCPYEFPIEGIEIYDRKKLPRKEVDDVLGGGWDNVDQTKTQCPNYDTCGGESAYFFQLQIRSADEPMTTFYKCVNCGHRWKEN”, the protein production entry was “failed”.

In the case of “MLSIMRRPIAALAVLLAAAVSIPAQAQFSDSYKFLEAVRKKEGDKVTEALNEPGTQIVNTKDYTTGQTGLHIVVARRDLVWVQFLVAKGANVNARDNRGVTPLVLAADIGFIEGVDELIRSGARVDEANNTGETPLISAVHRRDLALVRMLIKAGANPDRPDNSGRSARDYAMLEGKGSPLLGEIEKATKDAKAAGPQKTYGPSF”, the protein production entry was “failed”.

“MLSKFLLFSARLSTTKILASLIIIMILATGLYQWLIHTPAFSPQVSAVSTTTENDFSLTDWTINLVDKLNWQQGGSSTFFNAGLLFVFLSLATSVGLPRQIAALVAGINLGAFIGIIVATLAATLGCFITFSVARYLLSDCITRKYPSKLAQLSAFLGEQTFLKAIVIRILPLGSNFITNIIAGVSKVSMPAYVSGSFVGFIPQMVIFSLAGSGIRLGAQNELIASATLFVIALILTTYLVKKHKAKTKN”: the protein production entry was “failed”.

With “MLSKVIAQANIDHAEKWFERADKIVIVTHVSPDGDAIGSSLGLWHFLESQEKTVNVIVPNAFPDFLRWMPGAKDIIRYDKYTEFANKLLNEADVICCLDFNALSRIDAMADAVAQSPARKMMIDHHLNPEAFCRIIISHPEISSTSELVFRLICRLGYFEDITKEGAECIYTGMMTDTGGFTYNSNDREIYFIISELLSKGIDKDEIYRKVYNTYSEGRLRLMGYVLYDKMQVFPQFNSALVWLTKEEQSKFQYVKGDTEGFVNIPLSIKNIIFSVFLREDTEKNMIKVSLRSVGAFPCNKVAAEFFNGGGHLNASGGEFYGTMDEAIDLFKQALVKYEELLLAKK”, the protein production result is “failed”.

“MLSLNQEVHGPKTSEVYGFVGSISIVVATVIFLIWGYVPDKFLESIGIYYYPSKYWAMAMPMYSMVTLLVALVFYIGLNFMSTSKPTSLNTLFDDYSREDVNFLPLMKNGEDRPIDPISDIDITRINDLMFDSHLAK”: the protein production result is given as “failed”.

Regarding “MLSRLFLLFALVPFLELYLLVQVGTVIGAAPTILLVILTAVVGAWLARTQGLGVMARVQNDLARGIMPGQALIDGFCILLAGLLLLTPGFLTDVVGLLLLLPPFRALLASRLQRHFAVRYASSGTTAEGGHFIVYGSSGPAAHEEPRHAVVIDTQPIDSSSAATGLADDTKPLGDAQPSGDGRPRS”, the protein production entry is recorded as “failed”.

For “MLSRLSLLSNSRAFQQARWRIYRLKVSPTVHASQYHILSGRKLAQSIREKANDEIQAIKLKHPNFKPTLKIIQVGARPDSSTYVRMKLKASKDSNVDCIIEKLPAEITEVELLKKISDINDDDSIHGLLIQLPLPRHLDETTITNAVDFKKDVDGFHRYNAGELAKKGGKPYFIPCTPYGCMKLLEEAHVKLDGKNAVVLGRSSIVGNPIASLLKNANATVTVCHSHTRNIAEVVSQADIVIAACGIPQYVKSDWIKEGAVVIDVGINYVPDISKKSGQKLVGDVDFDSVKEKTSYITPVPGGVGPMTVAMLVSNVLLAAKRQFVESEKLPVIKPLPLHLESPVPSDIDISRAQSPKHIKQVAEELGIHSHELELYGHYKAKISPNIFKRLESRENGKYVLVAGITPTPLGEGKSTTTMGLVQALSAHLGKPSIANVRQPSLGPTLGVKGGAAGGGYAQVIPMDEFNLHLTGDIHAISAANNLLAAAIDTRMFHEATQKNDSTFYKRLVPRKKGIRKFTPSMQRRLKRLDIEKEDPDALTPEEVKRFARLNINPDTITIRRVVDINDRMLRQITIGEAATEKGFTRTTGFDITVASELMAILALSKSLHEMKERIGRMVIGADYDNKPVTVEDIGCTGALTALLRDAIKPNLMQTLEGTPVMVHAGPFANISIGASSVIADLMALKLVGSEKNPLNDKNIHEPGYVVTEAGFDFAMGGERFFDIKCRSSGLVPDAVVLVATVRALKSHGGAPNVKPGQSLPKEYTEENIDFVAKGVSNLVKQIENIKTFGIPVVVAINRFETDSQAEIEVIKKAALNAGASHAVTSNHWMEGGKGAVELAHAVVDATKEPKNFNFLYDVNSSIEDKLTSIVQKMYGGAKIEVSPEAQKKIDTYKKQGFGNLPICIAKTQYSLSHDPSLKGVPRGFTFPIRDVRASIGAGYLYALAAEIQTIPGLSTYAGYMAVEVDDDGEIEGLF”, the protein production result was “failed”.

Regarding “MLSVIIITKNEEANIRRCLESVHFADEIIVLDSGSTDNTLAIAREYTDKVFSTDWQGYGIQKDRALQKAQGDWVLNLDADESVSSELRQEILQAISSDTADAFRIPIQMIFYNQVLKYSGSPKRHIRLFKRENASYSKDIVHEKVLIPVNARVGKLKKPIWHHSFSDVHHVLYKLNKYSSYSAKIRIESNEKVGLVKTFFSALWMFVRCLFLQKGFLDGRAGFLFAVFGAQGAFYRGVKQIYKDRDINKLPSVNHIKEELEHHHHHH”, the protein production entry is given as “not failed”.

Turning to “MLSYCPNIFYLIMTTLCLVIQTGCSPAQDHVHSQLHSSISVTDRDGNTVQLNQPARRIVCLFEASVDDLYMLGAGKSIIGIPAKIYTSSDLYRAYSILDRRIYEKKIATPSNWEASTNIESVVALQPDLVIVSAGQKDVIQILNRMHIPVYSVLSENLQQTRKELLDLGKLTGKSQRASELVEFIDHEIQAIQQRNHTQSDQKTIYYGWSGGRIFSTSGRDSMPNTVMTLAGAHNVVNTAIDQPNVNPEKLIEWNPDVILLWNTNPKQIYQRSELKTLTAVKQQHVFNLSPSFLFNPHTPKILLAANQLNHWVYPAPHSDQAATQDKLRILTQFYGKTAAEQLIQYANDVTKE”, the protein production entry is listed as “failed”.

As for “MLTAAVLLPLVGALVAWIVPDNRLRPLVLPAVAVPHFLLTLALLAWTPPPSPQGWIFLDPLGKIVLLCISTLFLICAVYAVGYLAYRRDRSNRVLCMGLLACLSAMTLVTASQHLGLLWVAVETTTVTMAPLIYFNRNARSIEATWKYLLICSVGIALALLGLFFLAYATLVAHRDATLLLGPILASARELNPGWLHASFIFMLVGFGSKMGIAPLHSWKPDAYGEAPGLVGALLAGGLVNCAFLAILRVYQISLASGGEYLFFQKALLTMGLISMGLAAVFMARQADFKRMLAYSSVEHVGILAVALGLGKGALFGALFHLLNNGLTKGVLFLSSGNIHRSFNSKSTEVVRGALARLPWSAGLFLAGFIAITGSPPFSPFVSEFSIVSSAFVEGRYLVGGLFLFFLAVIFIGMALTVLPLVMGVPPADAERTDYRDRLLTVGPPLALLGLILMLGVWLPEPLLRLLGEGAALLEAKP”, the protein production result was “failed”.

For the sequence “MLTEMHIAVIGGDARQLEVIRKLVELDAKLSLIGFDQLDHGFTGAAKESIQNLDFTSVDAIILPVAGTNAKGEVDTIFSNEKVSITKEQIENTPEHFTIYSGIGTPYLENLVSTTNRKLIKLFDRDDVAIYNSIPTVEGTLMMVIQHTDYTIHGSNVMVLGFGRTGMSVARAFQSLGAHVKVGARRSEHIARITEMMFSPFHMQDIEKEVGDIDIVINTIPHLVVTANVISKMPAHTLVIDLASKPGGTDFRYAEKRGVKALLAPGLPGIVAPKTAGQILANVLSQLLAEDVIARKENGE”, the protein production entry is listed as “failed”.

With “MLTFEKVLEIFADYLTADETIEVYISRHGCVRVEFDQDFHYCSGEVCHTPKELFNLLADDYRTYVEIELTKGRRELTEDDEREADALCKRHLERWREKLE”, the protein production entry was “failed”.
